Data on ten molecules can be found in patent US20250084155A1 (University of Texas, published 2025).

Assay [1] has as its target T1, HSP70 (human HSP70; the antigen of the binning, humanization and variant binding assays) (human, UniProt P0DMV8 1-641, limits assumed).
T1 construct: also called hu HSP70
Description: BLI, anti-human Fc capture, steady state. The procedure:
(§1) Further kinetics assays were conducted for select antibody variants. Assays were performed as follows. Antibody variants were immobilized using anti-human Fc onto the surface of a series of biosensors. Antigen was passed over the surface to generate a binding response. Binding data for the antibody: antigen interactions were collected at 25° C. on the biosensors. A dilution series of the antigen was used in the association step, in order to fit results globally and get the best values for ka, kd, and KD. The response data for the binding of antigen to the surface immobilized antibody were fitted to a 1:1 binding model.
(BLI is a label-free optical method that tracks binding on a fibre tip over time.)

For assay [2], the target named is T1, HSP70 (human HSP70; the antigen of the …). The assay is described as follows: BLI, anti-human Fc capture, antigen dilution series, 1:1 fit. On the procedure: as §1
The target is the same in assay [3]. Description: BLI, anti-human Fc capture, antigen 100 nM. The essentials: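 Antibody variants captured on anti-human Fc biosensors at […]; antigen at 100 nM flowed over, 25° C. Captured antigen recorded at 610 s (start of dissociation) and 1495 s (end of dissociation), giving % dissociation.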
For assay [4] the target is unchanged. Description: BLI, antibody on sensor. On the procedure: Humanized variants were characterized for binding using biolayer interferometry (BLI). Chimeric antibodies including the murine 77A antigen binding region and human Fe regions were also tested. Antibodies and reagents were diluted out onto microwell plates and loaded into the instrument. Diluted antibodies were first immobilized onto dip-and-read sensors, and then measurements for baselines were acquired. Subsequently, the sensors were dipped into wells containing the antigen in solution, or buffer alone. The change in number of molecules bound to the sensor was quantified by measurement of the shift in the interference pattern of light during each step of the protocol. Mathematical modeling was performed based on those values and the concentrations of reagents used in the assay and used to calculate kinetics values.

As a reminder, the Kd is the constant that tells how readily two partners part at equilibrium. One may read the koff as a measure of how fast the partners let go of each other. A word on the kon: it is a measure of how fast the partners come together.

T1 sequence (P0DMV8 whole entry, change not shown): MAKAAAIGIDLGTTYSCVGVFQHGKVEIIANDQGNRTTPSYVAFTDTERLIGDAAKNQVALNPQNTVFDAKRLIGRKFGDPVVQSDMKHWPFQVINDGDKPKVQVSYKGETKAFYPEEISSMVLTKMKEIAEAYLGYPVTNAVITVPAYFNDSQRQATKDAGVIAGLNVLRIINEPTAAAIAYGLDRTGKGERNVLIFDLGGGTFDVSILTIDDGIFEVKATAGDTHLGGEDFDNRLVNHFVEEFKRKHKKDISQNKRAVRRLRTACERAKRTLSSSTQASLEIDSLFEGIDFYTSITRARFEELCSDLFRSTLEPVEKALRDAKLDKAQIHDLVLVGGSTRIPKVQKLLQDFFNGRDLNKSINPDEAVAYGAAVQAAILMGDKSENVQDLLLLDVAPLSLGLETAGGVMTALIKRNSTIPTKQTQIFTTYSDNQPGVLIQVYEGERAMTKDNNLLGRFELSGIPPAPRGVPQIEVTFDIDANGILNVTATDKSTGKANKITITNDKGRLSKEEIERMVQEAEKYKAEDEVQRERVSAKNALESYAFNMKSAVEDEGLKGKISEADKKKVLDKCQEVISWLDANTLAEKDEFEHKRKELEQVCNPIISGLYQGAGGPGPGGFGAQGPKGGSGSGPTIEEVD

B1: h77A-1 (antibody, V domains shown)
VH: QIQLVQSGAEVKKPGASVKVSCKASGYTFTNYGMNWVRQAPGQGLEWMGWINTYTGEPTYADDFKGRFTFTTDTSTSTAYMELRSLRSDDTAVYFCARYDHAMDYWGQGTLVTVSS
VL: EIVLTQSPDSLAVSLGERATINCKSSQSLLNSGTRKNYLAWYQQKAGQSPKLLIYWTSTRESGVPDRFSGSGSGTDFTLTIDSLQAEDVAVYYCKQSYTLYTFGGGTKVEIK
notes: also called hVH-1 + hVL-1
Consider B1, for which the “KD Steady State” value in assay [1] was found to be 1.2 nM. Moreover, in assay [2], binding was put at a Kd of 2.39 nM, the koff came to 0.000131 s⁻¹ and the association rate constant (kon) was found to be 54700 M⁻¹ s⁻¹. In assay [3], the “% Diss” value is 7.63%. In assay [4], this molecule yielded a Kd of 2.61 nM, a koff of 0.000173 s⁻¹ and a kon of 66200 M⁻¹ s⁻¹.

B2: h77A-1.94 (antibody, V domains shown)
VH: QIQLVQSGAEVKKPGASVKVSCKASGYTFTNYGMNWVRQAPGQGLEWMGWINTYTGEPTYTDDFKGRFTFTTDTSTSTAYMELRSLRSDDTAVYFCARYDHAMDYWGQGTLVTVSS
VL: EIVLTQSPDSLAVSLGERATINCKSSQSLFNSGTRKNYLAWYQQKAGQSPKLIIYWTSTRESGVPDRFSASGSGTDFTLSIDRLQAEDVAVYYCKQSYTLYTFGGGTKVEIK
notes: captured by anti-human Fc
For the molecule B2, the “KD Steady State” value in assay [1] was 1.3 nM. In assay [2], the dissociation constant Kd worked out at 1.85 nM, the koff was found to be 0.000111 s⁻¹ and the kon turned out to be 59900 M⁻¹ s⁻¹. In addition, the “% Diss” value in assay [3] was 5.24%.

B3: h77A-1.46 (antibody, V domains shown)
VH: QIQLVQSGVEVKKPGASVKVSCKASGYTFTNYGMNWVRQAPGQGLEWMGWINTYTGEPTYADDFKGRFTFTTDTSTSTAYMELRSLRSDDTAVYFCARYDHAMDYWGQGTLVTVSS
VL: EIVLTQSPDSLAVSLGERATIKCKSSQSLLNSGTRKNYLAWYQKKAGQSPKLLIYWTSTRESGVPDRFSGSGSGTDFTLTIDSLQAEDVAVYYCKQSYTLYTFGGGTKVEIK
notes: captured by anti-human Fc
As for B3, the “KD Steady State” value in assay [1] is 1.2 nM. Further, in assay [2], the affinity, expressed as Kd, was 2.24 nM; the koff turned out to be 0.000123 s⁻¹; the kon was 54800 M⁻¹ s⁻¹. In addition, the “% Diss” value in assay [3] worked out at 6.22%.

B4: h77A-1.71 (antibody, V domains shown)
VH: QIQLVQSGSEVKKPGASVKVSCKASGYTFTNYGMNWVRQAPGQGLEWMGWINTYTGEPTYADDFKGRFTFTTDTSTSTAYMDLRSLRSDDTAVYFCARYDHAMDYWGQGTLVTVSS
VL: EIVLTQSPDSLSVSLGERATIKCKSSQSLLNSGTRKNYLAWYQQKAGQSPKLLIYWTSTRESGVPDRFSGSGSGTDFTLTIDSLQTEDVAVYYCKQSYTLYTFGGGTKVEIK
notes: captured by anti-human Fc
For B4, in assay [1], the “KD Steady State” value was 1.3 nM. In assay [2], the Kd amounted to 2.51 nM, the koff came out at 0.000123 s⁻¹ and the kon was determined as 49000 M⁻¹ s⁻¹. Further, the “% Diss” value in assay [3] stood at 7.93%.

B5: h77A-1.27 (antibody, V domains shown)
VH: QIQLVQSGAEVKKPGASVKVSCKASGYTFTNYGMNWVRQAPGQGLEWMGWINTYTGEPTYTDDFKGRFTFTTDTSTSTAYMELRSLRSDDTAVYFCARYDHAMDYWGQGTLVTVSS
VL: EIVLTQSPDSLTVSLGERATINCKSSQSLLNSGTRKNYLAWYQQKAGQSPKLLIYWTSTRESGVPDRFSGSGSGTDFTLTIDSLQAEDVAVYYCKQSYTLYTFGGGTKVEIK
notes: captured by anti-human Fc
B5: the “KD Steady State” value in assay [1] stood at 0.89 nM. In assay [2], this molecule displayed a Kd of 1.41 nM, a dissociation rate constant (koff) of 0.000108 s⁻¹ and a kon of 76400 M⁻¹ s⁻¹. The “% Diss” value in assay [3] amounted to 6.74%.

B6: h77A-1.75 (antibody, V domains shown)
VH: QIQLVQSGVEVKKPGASVKVSCKASGYTFTNYGMNWVRQAPGQGLEWMGWINTYTGEPTYSDDFKGRFTFTTDTSTSTAYMEVRSLRSDDTAVYFCARYDHAMDYWGQGTLVTVSS
VL: EIVLTQSPDSLAVSLGERATINCKSSQSLFNSGTRKNYLAWYQQKAGQSPKLLIYWTSTRESGVPDRFSGSGSGTDFTLSIDSLQAEDVAVYYCKQSYTLYTFGGGTKVEIK
notes: captured by anti-human Fc
For the molecule B6, in assay [1], the “KD Steady State” value was 0.023 nM. Moreover, in assay [2], the Kd is 0.28 nM, the koff stood at 2.43e-05 s⁻¹ and the kon is 88100 M⁻¹ s⁻¹. The “% Diss” value in assay [3] amounted to 5.34%.

B7: h77A-1.30 (antibody, V domains shown)
VH: QIQLVQSGAEVKKPGASVKVSCKASGYTFTNYGMNWVRQAPGQGLEWMGWINTYTGEPTYADDFKGRFTFTTDTSTSTAYMEVRSLRSDDTAVYFCARYDHAMDYWGQGTLVTVSS
VL: EIVLTQSPDSLAVSLGERATINCKSSQSLLNSGTRKNYLAWYQQKAGQSPKLIIYWTSTRESGVPDRFSGSGSGTDFTLTIDSLQAEDVAVYYCKQSYTLYTFGGGTKVEIK
notes: captured by anti-human Fc
Take B7: the “KD Steady State” value in assay [1] is 0.86 nM. In assay [2], this molecule yielded a Kd of 1.93 nM, a koff of 0.000109 s⁻¹ and a kon of 56700 M⁻¹ s⁻¹. Further, in assay [3], the “% Diss” value stood at 5.1%.

B8: h77A-1.74 (antibody, V domains shown)
VH: QIQLVQSGPEVKKPGASVKVSCKASGYTFTNYGMNWVRQAPGQGLEWMGWINTYTGEPTYADDFKGRFTFTTDTSTTTGYMELRSLRSDDTAVYFCARYDHAMDYWGQGTLVTVSS
VL: EIVLTQSPDSLAVSLGERATIKCKSSQSLLNSGTRKNYLAWYQQKAGQSPKLLIYWTSTRESGVPDRFSGSGSGTDFTLTIDSLQAEDVAIYYCKQSYTLYTFGGGTKVEIK
notes: captured by anti-human Fc
With B8, in assay [1], the “KD Steady State” value was determined as 1.7 nM. For the same molecule, in assay [2], the Kd stood at 1.61 nM, the koff is 0.000125 s⁻¹ and the kon is 77800 M⁻¹ s⁻¹. Besides, the “% Diss” value in assay [3] came out at 9.07%.

B9: h77A-1.61 (antibody, V domains shown)
VH: QIQLVQSGAEVKKPGASVKVSCKASGYTFTNYGMNWVRQAPGQGLEWMGWINTYTGEPTYADDFKGRFTFTTDTSTSTAYMELRSLRSDDTAVYFCARYDHAMDYWGQGSLVTVSS
VL: EIVLTQSPDSLAVSLGERATINCKSSQSLLNSGTRKNYLAWYQKKSGQSPKLLIYWTSTRESGVPDRFSGSGSGTDFTLSIDSLQAEDVAVYYCKQSYTLYTFGGGTKVEIK
notes: captured by anti-human Fc
For B9, the “KD Steady State” value in assay [1] came out at 2.1 nM. In assay [2], the affinity, expressed as Kd, was 2.91 nM; the koff came out at 0.000123 s⁻¹; the kon was found to be 42100 M⁻¹ s⁻¹. In assay [3], the “% Diss” value is 6.66%.

B10: h77A-1.59 (antibody, V domains shown)
VH: QIQLVQSGPEVKKPGASVKVSCKASGYTFTNYGMNWVRQAPGQGLEWMGWINTYTGEPTYGDDFKGRFTFTTDTSTSTAYMELRSLRSDDTAVYFCGRYDHAMDYWGQGTLVTVSS
VL: EIVLTQSPDSLAVSLGERATINCKSSQSLLNSGTRKNYLAWYQQKAGQSPKLLIYWTSTRESGVPDRFSGSGSGTDFTLTIDRLQAEDVAVYYCKQSYTLYTFGGGTKVEIK
notes: captured by anti-human Fc
On to B10, for which the “KD Steady State” value in assay [1] was 0.74 nM. In assay [2], this molecule had a dissociation constant Kd of 2.93 nM, a koff of 0.00012 s⁻¹ and a kon of 40800 M⁻¹ s⁻¹. Also, the “% Diss” value in assay [3] stood at 9.8%.
